Test results published in paper PMC4938175, “Conserved Sequence Preferences Contribute to Substrate Recognition by the Proteasome*^([image sbox.jpg])” (The Journal of Biological Chemistry, 2016).

Target: purified S. cerevisiae proteasome (S. cerevisiae)
Test: competitive inhibition of proteasomal degradation of a fluorescent substrate; apparent Ki; DHFR-tail competitor varied, UbL-GFP-95 substrate, 40 nM purified yeast proteasome; loss of GFP fluorescence in 384-well plates; 30 °C (methods; the legend of Figure 7 says room temperature); 50 mM Tris, 5 mM MgCl2, 2.5% glycerol, 1 mM ATP, 4 mM DTT, 0.2 mg/ml BSA, 10 mM creatine phosphate, 0.1 mg/ml creatine kinase, pH 7.5; …
Details: both partners purified

B1: DHFR-35 (other)
chain: MISLIAALAVDRVIGMENAMPWNLPADLAWFKRNTLNKPVIMGRHTWESIGRPLPGRKNIILSSQPGTDDRVTWVKSVDEAIAACGDVPEIMVIGGGRVYEQFLPKAQKLYLTHIDAEVEGDTHFPDYEPDDWESVFSEFHDADAQNSHSYCFEILERRPRLRYQPLLRISQNCEAAILRASQTRLNTIHHHHHH
  Ki: 36 ± 6 µM

B2: DHFR-eRR (other)
chain: MISLIAALAVDRVIGMENAMPWNLPADLAWFKRNTLNKPVIMGRHTWESIGRPLPGRKNIILSSQPGTDDRVTWVKSVDEAIAACGDVPEIMVIGGGRVYEQFLPKAQKLYLTHIDAEVEGDTHFPDYEPDDWESVFSEFHDADAQNSHSYCFEILERRPRGGGGAWLLPVSLVRRRTTLAPNTQTASPRALADS
  Ki: 36 ± 5 µM

B3: DHFR-GRR (other)
chain: MISLIAALAVDRVIGMENAMPWNLPADLAWFKRNTLNKPVIMGRHTWESIGRPLPGRKNIILSSQPGTDDRVTWVKSVDEAIAACGDVPEIMVIGGGRVYEQFLPKAQKLYLTHIDAEVEGDTHFPDYEPDDWESVFSEFHDADAQNSHSYCFEILERRPRDSFGGGSGAGAGGGGMFGSGGGG
  Ki: 130 ± 20 µM
